The series in a line: total protein half-life in vivo (active degradation + dilution); higher = more stable protein.
The mark [1] stands for this setting: E. coli NCM3722 delta-clpP delta-lon delta-hslV, growth: N-lim chemostat, doubling time 6 h.
The mark [2] stands for this setting: E. coli NCM3722 delta-clpP, growth: N-lim chemostat, doubling time 6 h.
Setting [3] is: E. coli NCM3722 delta-hslV, growth: N-lim chemostat, doubling time 6 h.
Where [4] appears, read: E. coli NCM3722 delta-lon, growth: N-lim chemostat, doubling time 6 h.
The mark [5] stands for this setting: E. coli NCM3722 delta-smpB, growth: N-lim chemostat, doubling time 6 h.
Where [6] appears, read: wild type E. coli NCM3722, growth: C-lim chemostat, doubling time 3 h.
Where [7] appears, read: wild type E. coli NCM3722, growth: C-lim chemostat, doubling time 6 h.
The mark [8] stands for this setting: wild type E. coli NCM3722, growth: C-lim chemostat, doubling time 12 h.
[9] abbreviates: wild type E. coli NCM3722, growth: N-lim chemostat, doubling time 6 h.
The mark [10] stands for this setting: wild type E. coli NCM3722, growth: N-lim chemostat, doubling time 12 h.
[11] abbreviates: wild type E. coli NCM3722, growth: P-lim chemostat, doubling time 6 h.
Setting [12] is: wild type E. coli NCM3722, growth: P-lim chemostat, doubling time 12 h.

± gives the standard deviation of the averaged measurements.

“MLSKFKRNKHQQHLAQLPKISQSVDDVDFFYAPADFRETLLEKIASAKQRICIVALYLEQDDGGKGILNALYEAKRQRPELDVRVLVDWHRAQRGRIGAAASNTNADWYCRMAQENPGVDVPVYGVPINTREALGVLHFKGFIIDDSVLYSGASLNDVYLHQHDKYRYDRYHLIRNRKMSDIMFEWVTQNIMNGRGVNRLDDVNRPKSPEIKNDIRLFRQELRDAAYHFQGDADNDQLSVTPLVGLGKSSLLNKTIFHLMPCAEQKLTICTPYFNLPAILVRNIIQLLREGKKVEIIVGDKTANDFYIPEDEPFKIIGALPYLYEINLRRFLSRLQYYVNTDQLVVRLWKDDDNTYHLKGMWVDDKWMLITGNNLNPRAWRLDLENAILIHDPQLELAPQREKELELIREHTTIVKHYRDLQSIADYPVKVRKLIRRLRRIRIDRLISRIL”: the “total protein half-life in vivo” value reads like this: under setting [1], 5.434 ± 0.046 h; under setting [2], 5.74 ± 0.068 h; under setting [3], 5.18 ± 0.38 h; under setting [4], 5.91 ± 0.5 h; under setting [5], 4.896 ± 0.011 h; under setting [6], 2.97 ± 0.26 h. Moreover, the “total protein half-life in vivo” value is, setting by setting: under setting [7], 5.64 ± 0.11 h; under setting [8], 9.36 ± 0.81 h; under setting [9], 5.01 ± 0.21 h; under setting [10], 8.57 ± 0.86 h; under setting [11], 6.41 ± 0.85 h; under setting [12], 12 ± 1.5 h.
In the case of “MDICSRNKKLTIRRPAILVALALLLCSCKSTPPESMVTPPAGSKPPATTQQSSQPMRGIWLATVSRLDWPPVSSVNISNPTSRARVQQQAMIDKLDHLQRLGINTVFFQVKPDGTALWPSKILPWSDLMTGKIGENPGYDPLQFMLDEAHKRGMKVHAWFNPYRVSVNTKPGTIRELNSTLSQQPASVYVQHRDWIRTSGDRFVLDPGIPEVQDWITSIVAEVVSRYPVDGVQFDDYFYTESPGSRLNDNETYRKYGGAFASKADWRRNNTQQLIAKVSHTIKSIKPGVEFGVSPAGVWRNRSHDPLGSDTRGAAAYDESYADTRRWVEQGLLDYIAPQIYWPFSRSAARYDVLAKWWADVVKPTRTRLYIGIAFYKVGEPSKIEPDWMINGGVPELKKQLDLNDAVPEISGTILFREDYLNKPQTQQAVSYLQSRWGS”, the “total protein half-life in vivo” value is, setting by setting: under setting [1], over 8 h; under setting [2], 4.93 ± 1.2 h; under setting [3], 1.61 h; under setting [4], 2.787 ± 0.01 h; under setting [5], 1.73 ± 0.075 h; under setting [9], 1.89 ± 0.55 h. Also, the “total protein half-life in vivo” value was found to be 3.44 ± 0.99 h under setting [10], 2.29 ± 0.57 h under setting [11] and 4.65 ± 0.26 h under setting [12].
In the case of “MYAAKGTQAYAQIGVESAVMSASQQQLVTMLFDGVLSALVRASLFMQDNNQQGKGVSLSKAINIIENGLRVSLDEESKDELTQNLIALYSYMVRRLLQANLRNDVSAVEEVEALMRNIADAWKESLLSPSLIQDPV”, the “total protein half-life in vivo” value under setting [6] turned out to be 0.207 ± 0.029 h.
With “MSQETPASTTEAQIKNKRRISPFWLLPFIALMIASWLIWDSYQDRGNTVTIDFMSADGIVPGRTPVRYQGVEVGTVQDISLSDDLRKIEVKVSIKSDMKDALREETQFWLVTPKASLAGVSGLDALVGGNYIGMMPGKGKEQDHFVALDTQPKYRLDNGDLMIHLQAPDLGSLNSGSLVYFRKIPVGKVYDYAINPNKQGVVIDVLIERRFTDLVKKGSRFWNVSGVDANVSISGAKVKLESLAALVNGAIAFDSPEESKPAEAEDTFGLYEDLAHSQRGVIIKLELPSGAGLTADSTPLMYQGLEVGQLTKLDLNPGGKVTGEMTVDPSVVTLLRENTRIELRNPKLSLSDANLSALLTGKTFELVPGDGEPRKEFVVVPGEKALLHEPDVLTLTLTAPESYGIDAGQPLILHGVQVGQVIDRKLTSKGVTFTVAIEPQHRELVKGDSKFVVNSRVDVKVGLDGVEFLGASASEWINGGIRILPGDKGEMKASYPLYANLEKALENSLSDLPTTTVSLSAETLPDVQAGSVVLYRKFEVGEVITVRPRANAFDIDLHIKPEYRNLLTSNSVFWAEGGAKVQLNGSGLTVQASPLSRALKGAISFDNLSGASASQRKGDKRILYASETAARAVGGQITLHAFDAGKLAVGMPIRYLGIDIGQIQTLDLITARNEVQAKAVLYPEYVQTFARGGTRFSVVTPQISAAGVEHLDTILQPYINVEPGRGNPRRDFELQEATITDSRYLDGLSIIVEAPEAGSLGIGTPVLFRGLEVGTVTGMTLGTLSDRVMIAMRISKRYQHLVRNNSVFWLASGYSLDFGLTGGVVKTGTFNQFIRGGIAFATPPGTPLAPKAQEGKHFLLQESEPKEWREWGTALPK”, the “total protein half-life in vivo” value under setting [1] was determined as 6.34 ± 0.49 h; the “total protein half-life in vivo” value under setting [2] was 6.12 ± 0.52 h; the “total protein half-life in vivo” value under setting [3] came to 6.516 ± 0.036 h; the “total protein half-life in vivo” value under setting [4] was 6.06 ± 0.19 h; the “total protein half-life in vivo” value under setting [5] worked out at 6.04 ± 0.27 h; the “total protein half-life in vivo” value under setting [6] came out at 3.01 ± 0.3 h. Also, the “total protein half-life in vivo” value under setting [9] came out at 6.32 ± 0.48 h, the “total protein half-life in vivo” value under setting [10] stood at 13.1 ± 0.76 h, the “total protein half-life in vivo” value under setting [11] was determined as 6.43 ± 0.74 h and the “total protein half-life in vivo” value under setting [12] worked out at 13.5 ± 0.26 h.
For the sequence “MTVPTYDKFIEPVLRYLATKPEGAAARDVHEAAADALGLDDSQRAKVITSGQLVYKNRAGWAHDRLKRAGLSQSLSRGKWCLTPAGFDWVASHPQPMTEQETNHLAFAFVNVKLKSRPDAVDLDPKADSPDHEELAKSSPDDRLDQALKELRDAVADEVLENLLQVSPSRFEVIVLDVLHRLGYGGHRDDLQRVGGTGDGGIDGVISLDKLGLEKVYVQAKRWQNTVGRPELQAFYGALAGQKAKRGVFITTSGFTSQARDFAQSVEGMVLVDGERLVHLMIENEVGVSSRLLKVPKLDMDYFE”, the “total protein half-life in vivo” value turned out to be 5.65 ± 1.1 h under setting [1]; 4.02 ± 0.13 h under setting [2]; 3.84 ± 0.13 h under setting [3]; 4.33 ± 0.27 h under setting [4]; 3.561 ± 0.012 h under setting [5]; 2.94 ± 0.055 h under setting [6]. Besides, the “total protein half-life in vivo” value turned out to be 4.88 ± 0.19 h under setting [7]; 10.48 ± 0.072 h under setting [8]; 3.599 ± 0.011 h under setting [9]; 7.77 ± 3.8 h under setting [10]; 4.92 ± 0.1 h under setting [11]; 10.4 ± 0.31 h under setting [12].
Regarding “MQAATVVINRRALRHNLQRLRELAPASKMVAVVKANAYGHGLLETARTLPDADAFGVARLEEALRLRAGGITKPVLLLEGFFDARDLPTISAQHFHTAVHNEEQLAALEEASLDEPVTVWMKLDTGMHRLGVRPEQAEAFYHRLTQCKNVRQPVNIVSHFARADEPKCGATEKQLAIFNTFCEGKPGQRSIAASGGILLWPQSHFDWVRPGIILYGVSPLEDRSTGADFGCQPVMSLTSSLIAVREHKAGEPVGYGGTWVSERDTRLGVVAMGYGDGYPRAAPSGTPVLVNGREVPIVGRVAMDMICVDLGPQAQDKAGDPVILWGEGLPVERIAEMTKVSAYELITRLTSRVAMKYVD [P0A6B4]”, the “total protein half-life in vivo” value came to 5.14 ± 0.16 h under setting [1]; 4.27 ± 0.085 h under setting [2]; 5.12 ± 0.41 h under setting [3]; 4.99 ± 0.29 h under setting [4]; 4.58 ± 1.3 h under setting [5]; 3.1 ± 0.046 h under setting [6]. Moreover, the “total protein half-life in vivo” value reads like this: under setting [7], 5.75 ± 0.44 h; under setting [8], 11 ± 1.9 h; under setting [9], 4.39 ± 0.14 h; under setting [10], 7.99 ± 0.34 h; under setting [11], 5.87 ± 0.2 h; under setting [12], 11.53 ± 0.057 h.
“MVDSKKRPGKDLDRIDRNILNELQKDGRISNVELSKRVGLSPTPCLERVRRLERQGFIQGYTALLNPHYLDASLLVFVEITLNRGAPDVFEQFNTAVQKLEEIQECHLVSGDFDYLLKTRVPDMSAYRKLLGETLLRLPGVNDTRTYVVMEEVKQSNRLVIKTR [P0ACJ0]”: the “total protein half-life in vivo” value by setting is: under setting [1], 6.5 ± 0.13 h; under setting [2], 6.63 ± 0.76 h; under setting [3], 6.65 ± 0.079 h; under setting [4], 7.54 ± 0.57 h; under setting [5], 6.08 ± 0.29 h; under setting [6], 3.27 ± 0.28 h. For the same sequence, the “total protein half-life in vivo” value is, setting by setting: under setting [7], 6.23 ± 0.33 h; under setting [8], 10.8 ± 0.19 h; under setting [9], 5.82 ± 0.65 h; under setting [10], 12 ± 0.67 h; under setting [11], 5.73 ± 0.45 h; under setting [12], 14 ± 0.69 h.

The values above are taken from the supplement of paper PMC11246515.
